Assay results taken from the supplement of paper PMC9170038.

Tested on: MS2 coat protein
Experiment: apparent KD of MS2 coat protein; higher = weaker reporter binding
Details: Eterna round: R107
Outline: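 The buffer was 100 mM Tris-HCl pH 7.5 with 80 mM KCl and 4 mM MgCl2, used without or with constant ligand. In it, RNA switches transcribed on-chip from Illumina sequencing clusters were titrated with SNAP-549-labelled MS2 coat protein in twofold steps from 0.7 or 1.5 nM to 3 µM. Apparent KD for each design is the median of its normalised cluster binding-curve fits.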

[1] = input ligand: theophylline 20 uM
[2] = input ligand: theophylline 2 mM
[3] = input ligand: tryptophan 2.4 mM

Sequence | apparent KD of MS2 coat protein (input ligand: arginine 13.2 mM) [nM] | apparent KD of MS2 coat protein (input ligand: none) [nM] | apparent KD of MS2 coat protein [1] [nM] | apparent KD of MS2 coat protein [2] [nM] | apparent KD of MS2 coat protein [3] [nM]
AAUGUAUGGCACAUGAGGAUCACCCAUGUGCGAGGACCGGUACGGCCGCCACUCGGUCCUGGGUUCUUAUUACUAUACAUUAAUG [XTryp A #15] | 9.78 | 11 | 16 | 14.4 | 27.1
UAGCGAUAAUCUGAUACCAGACGUGUACUCUCCUCAGACAUGAGCAUCAGCCAUGUAUGCGUCCCUUGGCAGCAGAGAUAGGAGA [Theo B Ex t5b] | 16.9 | 16.1 | 24.5 | 36.7 | 16.9
UUUACAUGAGGAUCACCCAUGUGCCAUGAUACCAGACAUGAAAAUGUCCCUUGGCAGCAUGAGUGAUAUGCGUCGGAAACGACGC [Jundrov] | 499 | 153 | 102 | 1210 | 194
AUAAGUAAUGUUUCGUGUAUUAUUACAGAUACCAGACUAUACGUUGUCCCUUGGCAGCUGGAUUACAUGAGGAUCACCCAUGUUG [JR_ExcTheophyA_Sub002] | 16 |  | 19.3 |  | 17.1
UCACAUGAGGAUCACCCAUGUCCAGGUGAAGGAGCGAUUAGGGAGUCAGGUAGGUCGCACCACAUGAGGAUCACCCAUGUGCCUG [EAA NP+V+V2 #8 DOUBLE] | 18.4 | 22.8 | 27.5 | 25.4 | 24.1
AUGUCGUUGAAUAUAGCGGCUUGGUGUGAUACCAGAAUGAUCUAAUUCCCUUGGCAGCAUUACAUGAGGAUCACCCAUGUUCCAG [SSTheo A #21] | 23.6 | 39.1 | 47.4 | 57.3 | 48.7
AGCGCAGGUCCUGAUACCAGAGACAUGAGGAUCACCCAUGUCCGAUGGUCCUGCCUCAGGCUCCCUUGGCAGCAGGGCUUGUGCU [Exclusion Theophylline B GF10] | 10.6 |  | 13.1 |  | 10.1
AUACCUAAUGUUACAUUUACCUUAUCAGAUACCAGACUUUACGUUGUCCCUUGGCAGCUGUAUCACAUGAGGAUCACCCAUGUUG [JR_SSTheophyA_Sub010] | 17.1 |  | 19.2 |  | 15.3
UUGCAGAUCGGAAAGGUCCUGCUGUUCGAAGGAGCGGUAAAAGUACCAGGUAGGUCGCGAACAUGAGGAUCACCCAUGUUUGCAA [Usmaenbi] | 11.3 | 22.3 | 28.2 | 20.2 | 21.1
CUAAGAGCGGCGGCCGCCACUGGUAACCAAGAGGCGGAGCCUCUGACAUGAGGAUCACCCAUGUUCAGGACCGGGUCGUCUUAGA [#07 Same State - Tryptophan B] | 7.23 | 12.2 | 13.6 | 18.5 | 10.9
UAGACGGCCGGAAGGAGCGGUACAUGAGGAUCACCCAUGUACUUCUGGGCAUCCGUAGUGUGCCAGGUAGGUCGCCGGUUGCGGG [XArg-B20] | 45.9 | 14.4 | 32.4 | 33.1 | 19.9
AAUAACAAGAGGAUCACCCUUGUAAAAGAUACCAGAGUGAUGAUCCUCCCUUGGCAGCUUAACGCUGAUUGAUUACAAUCAGCGA | 27 | 35.5 | 81.8 | 142 | 32
UUAUAAGUACCGGUCCUCAGAUCCUCAUGACGAGGACCGGUACGGCCGCCACUCGAAACAUGAGGAUCACCCAUGUAAUAAUAAU [Brourdmod05] | 18.8 |  | 29.3 | 27.7 | 
AGCGUAUAGACGGAUACCAGCGCCGAUUAACAUGAGGAUCACCCAUGUAGUGUGGGUGGACGCCCUUGGCAGCCGAGUAUAGGUA [#07 Exclusion-TheophyllineB] | 391 | 89.7 | 115 | 360 | 221
ACAUGAGGAUCACCCAUGUAGUGGCACGAUACCAGCUGAUCCCGUGGCCCUUGGCAGCGUCCGGUGUGGUGCGCCGGGUUGGAGC [BBBMULLIN] | 38 |  | 77.4 |  | 48.9
UUGUUGUUUGGAAGGAGCGUGUAUGAGUUAGAACAUGAGGAUCACCCAUGUUGGAUGAUAGCACAGGUAGGUCGCCGGGUGGUGG [11.Y] | 8.43 | 24.1 | 18.4 | 66.8 | 11
GACAUGAGGAUCACCCAUGUACCGCGAGAAGGAGCGCGGAUAAACGCAGGUAGGUCGCUCGUGGGCUUAUAUUCAAUUGUAAGCU [Usence] | 24.8 | 33.2 | 43.1 | 44.6 | 30.4
UGUAUGGACUGAAGGAGCGGGUUGAUAACCUGAGGAUCAUCCAGGUAAAAGGCGAAAGCCGCCCAGGUAGGUCGCAGUCCAUACU | 174 | 158 | 227 | 280 | 237
ACAUGAGGAUCACCCAUGUUUGUUGUUCCUCGAGGACCGGUACGGCCGCCACUCGAACGAGUGGCGCGCGCGCGCGCGCGCGCGC [aMa] | 11.6 | 13.3 | 36.4 | 16.4 | 12.6
GUCGCUGAGGGAAGGAGCGUGAAGACAUGAGGAUCACCCAUGUAGAGGCGCCGAAGGCGUUCGCAGGUAGGUCGCCCUCAGUGAC [#1 Same State - Arginine B Attempt #22 (HarryS)] | 42.4 | 19.3 | 23.2 | 16.7 | 16.8
CAAAUAAGAACAAACAAAUAACGGUUUUCGCGAGGACCGGUACGGCCGCCACUCGUGUGAAAUAACACAUGAGGAUCACCCAUGU [3'end-1] | 31.8 |  | 44.6 | 47.9 | 
ACGAGACGUCUGGAUACCAGCCCAGCGAUAAACAUGAGGAUCACCCAUGUCAAACCACCCGGCCCUUGGCAGCCACGUACCUCAC [theeternabot_sameState_MS2_Theo_B_10] | 15.9 |  | 19.1 |  | 14.9
GUCAGUGACUGAAGGAGCGACAUGAGGAUCACCCAUGUCUCCCGUUAUGGGAGUUCCUUAGGUCAGGUAGGUCGCAGUCACUGAC [#1 Exclusion - Arginine B Attempt #29 (Inspired by Omei)] | 174 | 123 | 163 | 188 | 95.7
AUCCACAGCCGAAGGAGCGCAGUAGGAUGACAUGAGGAUCACCCAUGUGUGUGAUGUGGAUUGCAGGUAGGUCGCGGAGUGGGUU [Exclusion - Arginine B (Freestyle 8)] | 43.9 | 71.7 | 72.5 | 73.6 | 72.6
AGCAGCUCGAAAGAGUUGCACUCAUGUGAAGGAGCGCCCGUUAGGGCAGGUAGGUCGCACAUGAGGAUCACCCAUGUACCUUCUA [ArgAX 20 #OpenEnded #MS2Late] | 84.4 | 174 | 182 | 273 | 188
CGGCCCUCACCUGAGGAUCACCCGGGUGAUACCAGCCUGGAAACAGGCCCUUGGCAGCACCAGGUCAUCAAAGAUGACCAAGCCG [TheoAX 26 #OpenEnded #AlternativeMS2] | 21.3 | 97.5 | 110 | 2630 | 105
AGUAGUUGACAAAAGUCAGCUACAAUUGAAGGAGCGGGAUCCUUCCCAGGUAGGUCGCAAUAACAUGAGGAUCACCCAUGUCAAA [ArgAS 4 #BothOrNeither #OpenEnded] | 15.9 | 27.7 | 26.6 | 20.4 | 20.3
UCGCCCAGGAUGGAAUCCUGGGAUAUGGAAGGAGCGCUGAUGCCAGCAGGUAGGUCGCCAACGGACAUGAGGAUCACCCAUGUAC [Same State - Arginine A (Freestyle 9)] | 17.7 | 19.1 | 28.8 | 21.2 | 18.6
AAAUAAAUACAUGAGGAUCACCCAUGUGAAGGAGCGGCCGUUAGGCCAGGUAGGUCGCGCAUGAAUAACUCCGUGCAUAAGCACA [MAT - Exclusion Arginine A - Mod of Eli - D18] | 10.6 | 11.1 | 16.6 | 12.2 | 12.3
ACACCAUACAUGAGGAUCACCCAUGUUACACGAGGACCGGUACGGCCGCCACUCGAAUUCAGGAAACCUCGGAUAAUAUUGUGAA [JR_SS-TryptA_Sub001] | 22.3 |  | 50.1 | 32.4 | 
